The text below walks through data of patent US20240132578A1.

Where only a bound is given, the exact number is not on record here.

Holding throughout (assay): cell-based or functional assay
Test [1] concerns the target HIV-1 Env of isolate 94 KE 105 (pseudovirus) (HIV-1).
Test [2] concerns the target HIV-1 Env of isolate 92RW009 (subtype A) (HIV-1).
In test [3] the target is HIV-1 Env of isolate MGRM-AE-003 (pseudovirus) (HIV-1).
In test [4] the target is HIV-1 Env of isolate MG RM-A-005 (pseudovirus) (HIV-1).
Test [5] deals with HIV-1 Env of isolate MGRM-AE-001 (pseudovirus) (HIV-1).
In test [6] the target is HIV-1 Env of isolate MGRM-C-022 (subtype C), on pseudovirus (HIV-1).
Test [7] concerns the target HIV-1 Env of isolate MG RM-A-014 (pseudovirus) (HIV-1).
In test [8] the target is HIV-1 Env of isolate MGRM-AG-009 (subtype AG) (HIV-1).
Test [9] has as its target HIV-1 MGRM-D-001 envelope protein (Env) on pseudovirus (HIV-1).
Test [10] addresses HIV-1 Env of isolate MGRM-AE-006 (subtype AE) (HIV-1).
Test [11] deals with HIV-1 Env of pseudovirus isolate MGRM-C-028 (clade C) (HIV-1).
The target in test [12] is HIV-1 Env of pseudovirus isolate MGRM-C-027 (clade C) (HIV-1).
For test [13], the target named is HIV-1 Env of isolate MGRM-D-011 (pseudovirus) (HIV-1).
The target of test [14] is HIV-1 Env of isolate MGRM-A-001 (pseudovirus) (HIV-1).
In test [15] the target is HIV-1 Env of isolate 92UG024 (pseudovirus) (HIV-1).
For test [16], the target named is HIV-1 Env of isolate MGRM-D-028 (HIV-1).
Test [17] addresses HIV-1 Env of isolate MGRM-F1-012 (HIV-1).
The target of test [18] is HIV-1 Env of isolate MGRM-Chronic-B-004 (HIV-1).
The target in test [19] is HIV-1 Env of isolate MGRM-D-020 (pseudovirus) (HIV-1).
Test [20] concerns the target HIV-1 Env of isolate MGRM-D-014 (pseudovirus) (HIV-1).
Test [21] addresses HIV-1 envelope glycoprotein (Env) of isolate MG RM-A-008, subtype A (HIV-1).
Test [22] has as its target HIV-1 envelope glycoprotein (Env) of isolate 92WR021, subtype A (HIV-1).
In test [23] the target is HIV-1 envelope glycoprotein (Env) of isolate MG RM-A-007, subtype A (HIV-1).
The target in test [24] is HIV-1 Env of isolate MGRM-AG-011 (pseudovirus) (HIV-1).
The target of test [25] is HIV-1 Env of isolate MGRM-AE-007 (pseudovirus) (HIV-1).
Test [26] has as its target HIV-1 envelope glycoprotein (Env) of isolate 94 KE 105, subtype AC (HIV-1).
Test [27] addresses HIV-1 envelope glycoprotein (Env) of isolate CAAN.A2, on pseudovirus (HIV-1).
Test [28] deals with HIV-1 envelope glycoprotein (Env) of isolate APV_13, on pseudovirus (HIV-1).
Test [29] concerns the target HIV-1 Env of isolate MGRM-AG-005 (pseudovirus) (HIV-1).
The target in test [30] is HIV-1 envelope glycoprotein (Env) of isolate 92UG037, subtype A (HIV-1).
The target in test [31] is HIV-1 envelope glycoprotein (Env) of isolate APV_6, on pseudovirus (HIV-1).
The target in test [32] is HIV-1 94UG103 Env (HIV-1).

Sequence of 4993_K13 (PGT-141) (antibody) (VH): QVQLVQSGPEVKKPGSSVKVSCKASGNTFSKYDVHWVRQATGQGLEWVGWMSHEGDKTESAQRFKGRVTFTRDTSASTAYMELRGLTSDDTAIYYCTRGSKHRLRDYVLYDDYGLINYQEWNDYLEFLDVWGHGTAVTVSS
Sequence of 4993_K13 (PGT-141) (antibody) (VL): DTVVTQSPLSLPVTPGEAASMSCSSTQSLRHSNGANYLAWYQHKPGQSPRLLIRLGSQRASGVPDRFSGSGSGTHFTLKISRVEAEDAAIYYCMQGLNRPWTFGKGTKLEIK
Sequence of 4995_E20 (PGT-142) (antibody) (VH): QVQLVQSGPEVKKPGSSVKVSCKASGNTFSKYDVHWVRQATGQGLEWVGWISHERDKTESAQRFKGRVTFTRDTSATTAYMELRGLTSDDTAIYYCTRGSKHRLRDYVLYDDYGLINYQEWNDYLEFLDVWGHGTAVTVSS
Sequence of 4980_N08 (PGT-143) (antibody) (VH): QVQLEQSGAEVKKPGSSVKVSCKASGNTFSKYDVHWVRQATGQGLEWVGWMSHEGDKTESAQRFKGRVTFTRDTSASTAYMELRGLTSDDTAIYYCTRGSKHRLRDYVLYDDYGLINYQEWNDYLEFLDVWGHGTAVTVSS
Sequence of 4980_N08 (PGT-143) (antibody) (VL): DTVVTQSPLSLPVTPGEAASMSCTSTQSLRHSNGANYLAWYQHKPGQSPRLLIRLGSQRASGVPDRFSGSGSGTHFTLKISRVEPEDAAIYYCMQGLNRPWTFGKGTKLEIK
Sequence of 4970_K22 (PGT-144) (antibody) (VH): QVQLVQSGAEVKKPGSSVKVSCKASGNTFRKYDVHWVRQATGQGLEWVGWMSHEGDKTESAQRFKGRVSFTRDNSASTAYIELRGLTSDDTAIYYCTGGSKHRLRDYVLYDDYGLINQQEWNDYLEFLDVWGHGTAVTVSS
Sequence of 4970_K22 (PGT-144) (antibody) (VL): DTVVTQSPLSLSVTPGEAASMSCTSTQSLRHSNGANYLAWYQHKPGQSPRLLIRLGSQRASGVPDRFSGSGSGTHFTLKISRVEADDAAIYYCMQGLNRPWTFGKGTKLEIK
Sequence of 4995_P16 (PGT-145) (antibody) (VH): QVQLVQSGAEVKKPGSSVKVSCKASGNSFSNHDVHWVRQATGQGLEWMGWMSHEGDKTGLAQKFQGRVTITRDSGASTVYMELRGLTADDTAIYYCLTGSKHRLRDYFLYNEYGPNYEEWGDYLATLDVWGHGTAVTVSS
Sequence of 4995_P16 (PGT-145) (antibody) (VL): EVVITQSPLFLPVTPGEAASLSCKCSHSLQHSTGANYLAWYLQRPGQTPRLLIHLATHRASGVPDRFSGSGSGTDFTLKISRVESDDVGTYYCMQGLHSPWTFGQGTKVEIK

4995_P16 (PGT-145) (antibody): the IC50 (µg/mL), single-round pseudovirus neutralization in test [1] amounted to 1.32 µg/mL; in test [3], 0.552 µg/mL; in test [4] it was 0.128 µg/mL; in [5], 20.9 µg/mL; in test [7] it was 1.36 µg/mL. Besides, the IC50, pseudovirus neutralization in test [2] amounted to 0.026 mg/L. The substance also registered an IC50, single-round pseudovirus neutralization in test [6] of 0.492 mg/L.

With 4993_K13 (PGT-141) (antibody), the IC50 (µg/mL), single-round pseudovirus neutralization in [1] was 0.204 µg/mL; in test [3] it was over 50 µg/mL; in [4] it was 11.1 µg/mL; in test [5] it was over 50 µg/mL; in test [7], 0.628 µg/mL. The same substance registered an IC50, pseudovirus neutralization in [2] of 0.022 mg/L. This substance displayed an IC50, single-round pseudovirus neutralization in test [6] of 0.381 mg/L.

Turning to 5329_C19 (PGT-136) (antibody), the IC50, pseudovirus neutralization was over 50 mg/L in test [8], over 50 mg/L in test [10], 33.7 mg/L in test [11] and over 50 mg/L in [12]. Further, the IC50 (ug/mL), pseudovirus neutralization in test [9] was over 10 µg/mL. Also, the IC50 (µg/mL), pseudovirus neutralization in test [13] was over 50 µg/mL; in test [14], over 50 µg/mL; in test [15], 0.052 µg/mL; in test [16], over 50 µg/mL; in test [17], over 50 µg/mL; in [18] it was over 50 µg/mL. For the same substance, the IC50 (µg/mL), pseudovirus neutralization in [19] and in test [20] was over 50 µg/mL in each case.

With 5114_A19 (PGT-128) (antibody), the IC50, pseudovirus neutralization worked out at 0.021 mg/L in test [8], 0.044 mg/L in [10], 14.4 mg/L in [11] and 0.081 mg/L in [12]. For the same substance, the IC50 (µg/mL), pseudovirus neutralization is 0.007 µg/mL in test [13]; over 50 µg/mL in test [14]; over 50 µg/mL in [15]; over 50 µg/mL in test [16]; 0.007 µg/mL in test [17]; 0.009 µg/mL in [18]. The IC50 (µg/mL), pseudovirus neutralization in [19] stood at 0.011 µg/mL; in test [20], 0.013 µg/mL.

For 5141_B17 (PGT-126) (antibody), the IC50, pseudovirus neutralization in test [21] was over 50 mg/L; in [22], 0.006 mg/L; in test [23], over 50 mg/L; in [26] it was 0.006 mg/L; in test [27], 0.273 mg/L; in test [28], 0.012 mg/L. The IC50, pseudovirus neutralization in test [30] was found to be 0.011 mg/L; in test [31], 0.007 mg/L; in [32], 0.0091 mg/L. For the same substance, the figures for the IC50 (µg/mL), pseudovirus neutralization in test [24], in test [25] and in [29] were 24.5 µg/mL, over 50 µg/mL and 1.21 µg/mL, respectively. In addition, the IC50 (ug/mL), pseudovirus neutralization in test [9] amounted to 0.0639 µg/mL.

Consider 4995_E20 (PGT-142) (antibody), for which the IC50 (µg/mL), single-round pseudovirus neutralization in test [1] is 0.19 µg/mL; in test [3] it was over 50 µg/mL; in test [4], 9.7 µg/mL; in test [5], over 50 µg/mL; in [7] it was 0.367 µg/mL. This substance came in with an IC50, pseudovirus neutralization in test [2] of 0.006 mg/L. Also, the IC50, single-round pseudovirus neutralization in [6] came out at 0.086 mg/L.

As for 5345_I01 (PGT-137) (antibody), the IC50, pseudovirus neutralization in [8], in [10], in test [11] and in test [12] was over 50 mg/L in each case. The IC50 (µg/mL), pseudovirus neutralization was 6.3 µg/mL in test [13]; over 50 µg/mL in [14]; 0.106 µg/mL in test [15]; over 50 µg/mL in [16]; over 50 µg/mL in [17]; over 50 µg/mL in test [18]. In addition, the IC50 (µg/mL), pseudovirus neutralization in [19] and in test [20] was over 50 µg/mL throughout.

With 5123_A06 (PGT-125) (antibody), the IC50, pseudovirus neutralization was over 50 mg/L in test [21]; 0.005 mg/L in test [22]; over 50 mg/L in test [23]; 0.004 mg/L in [26]; 5.47 mg/L in test [27]; 0.007 mg/L in test [28]. For the same substance, the IC50, pseudovirus neutralization in [30] was 0.005 mg/L; in [31], 0.021 mg/L; in test [32] it was 0.0124 mg/L. Further, the values for the IC50 (µg/mL), pseudovirus neutralization in [24], in [25] and in [29] were over 50 µg/mL, 0.876 µg/mL and over 50 µg/mL, respectively. This substance had an IC50 (ug/mL), pseudovirus neutralization in test [9] of 2.31 µg/mL.

As for 5136_H01 (PGT-131) (antibody), the IC50, pseudovirus neutralization in test [8] is over 50 mg/L; in test [10], 0.026 mg/L; in test [11], over 50 mg/L; in [12] it was 0.065 mg/L. Besides, the IC50 (µg/mL), pseudovirus neutralization was 0.756 µg/mL in test [13]; over 50 µg/mL in test [14]; over 50 µg/mL in test [15]; over 50 µg/mL in test [16]; over 50 µg/mL in test [17]; 0.04 µg/mL in [18]. The values for the IC50 (µg/mL), pseudovirus neutralization in test [19] and in [20] were over 50 µg/mL and 0.516 µg/mL, respectively.

As for 4970_K22 (PGT-144) (antibody), the IC50 (µg/mL), single-round pseudovirus neutralization was 0.29 µg/mL in [1]; over 50 µg/mL in [3]; 18.6 µg/mL in test [4]; over 50 µg/mL in test [5]; over 50 µg/mL in test [7]. Moreover, the IC50, pseudovirus neutralization in [2] was 0.893 mg/L. This substance also registered an IC50, single-round pseudovirus neutralization in [6] of 2.58 mg/L.

Turning to 4980_N08 (PGT-143) (antibody), the IC50 (µg/mL), single-round pseudovirus neutralization in test [1] is 0.368 µg/mL; in [3], over 50 µg/mL; in test [4], 7.48 µg/mL; in [5] it was over 50 µg/mL; in test [7], 1.07 µg/mL. Moreover, the IC50, pseudovirus neutralization in test [2] stood at 0.01 mg/L. Also, in test [6], the IC50, single-round pseudovirus neutralization was 0.103 mg/L.

As for 5343_B08 (PGT-135) (antibody), the IC50, pseudovirus neutralization in test [8] is over 50 mg/L; in [10], over 50 mg/L; in test [11], 1.47 mg/L; in [12] it was over 50 mg/L. In test [9], this substance gave an IC50 (ug/mL), pseudovirus neutralization of over 10 µg/mL. The IC50 (µg/mL), pseudovirus neutralization is 23.5 µg/mL in test [13]; over 50 µg/mL in [14]; 0.01 µg/mL in test [15]; over 50 µg/mL in test [16]; 0.01 µg/mL in test [17]; over 50 µg/mL in test [18]. In addition, the IC50 (µg/mL), pseudovirus neutralization in [19] was over 50 µg/mL; in [20], 2.21 µg/mL.
